Measured values taken from PMC8961561, “PEPscan: A Broad Spectrum Approach for the Characterization of Protein-Binder Interactions?” (Biomolecules, 2022).

T1: SLAM-Associated Protein (SAP) (UniProt O60880 1-128)
T1 construct: SAP, UniProt O60880, full size 128
T1 sequence (looked up): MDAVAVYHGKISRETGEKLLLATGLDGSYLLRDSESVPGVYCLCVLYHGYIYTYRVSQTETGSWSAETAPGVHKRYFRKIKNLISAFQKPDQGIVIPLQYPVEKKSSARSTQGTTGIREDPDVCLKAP


Tests used:
[1] = target: T1, SLAM-Associated Protein (SAP); assay: peptide or protein array; PEPscan: overlapping dodecapeptides (two amino acid shift) spanning the complete sequence of one partner on a cellulose membrane; saturated with 3% non-fat dry milk/3% BSA; incubated with the purified protein partner (4 mg/mL, 4 °C, overnight); antibody against that protein, HRP-conjugated secondary antibody, ECL; conditions: both partners purified
TIMP-1 = target: T2, TIMP-1 (UniProt P01033 24-207); assay: as above; conditions: both partners purified
T2 construct: TIMP-1, UniProt P01033, full size 207
T2 sequence (P01033 24-207): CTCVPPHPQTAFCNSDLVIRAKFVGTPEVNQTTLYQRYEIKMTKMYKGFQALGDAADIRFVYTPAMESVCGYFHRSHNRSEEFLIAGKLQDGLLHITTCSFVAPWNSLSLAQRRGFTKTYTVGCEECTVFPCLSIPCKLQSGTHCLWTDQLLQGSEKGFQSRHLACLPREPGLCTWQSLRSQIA

| Binder | binding result [1] | binding result (TIMP-1) |
| --- | --- | --- |
| ALYDYEARTEDDLSFH (stretch of Fyn; union of positive overlapping dodecapeptide spots 2:14–16; also called FSYN-SH3 2:14–16; source: spot synthesis on cellulose membrane) [Fyn fragment ALYDYEARTEDDLSFH] | binds |  |
| FREYNLHRVAAHELGHSL (stretch of MMP-1; union of positive overlapping dodecapeptide spots 4:11–14; also called MMP1 4:11–14; source: spot synthesis on cellulose membrane) [MMP1 fragment FREYNLHRVAAHELGHSL] |  | binds |
